B1: Hereditary hemochromatosis protein (Homo sapiens), Q30201 (parent)
chain: MGPRARPALLLLMLLQTAVLQGRLLRSHSLHYLFMGASEQDLGLSLFEALGYVDDQLFVFYDHESRRVEPRTPWVSSRISSQMWLQLSQSLKGWDHMFTVDFWTIMENHNHSKESHTLQVILGCEMQEDNSTEGYWKYGYDGQDHLEFCPDTLDWRAAEPRAWPTKLEWERHKIRARQNRAYLERDCPAQLQQLLELGRGVLDQQVPPLVKVTHHVTSSVTTLRCRALNYYPQNITMKWLKDKQPMDAKEFEPKDVLPNGDGTYQGWITLAVPPGEEQRYTCQVEHPGLDQPLIVIWEPSPSGTLVIGVISGIAVFVVILFIGILFIILRKRQGSRGAMGHYVLAERE

Assays:
[1] = variants of: B1; conditions: with trfe_human TF
[2] = variants of: B1; conditions: with b2mg_human B2M
[3] = variants of: B1; conditions: with trfe_human TF; remark: listed apart in the source
[4] = variants of: B1; conditions: with b2mg_human B2M; remark: listed apart in the source
[5] = variants of: B1; conditions: with tfr1_human TFRC
[6] = variants of: B1; conditions: with trfe_human TF; remark: listed apart in the source
[7] = variants of: B1; conditions: with trfe_human TF; remark: listed apart in the source

Row | effect of a mutation on the interaction [1] | effect of a mutation on the interaction [2] | effect of a mutation on the interaction [3] | effect of a mutation on the interaction [4] | effect of a mutation on the interaction [5] | effect of a mutation on the interaction [6] | effect of a mutation on the interaction [7] | Variant
1 | decreasing interaction | disrupting interaction | – | – | – | – | – | N234A
2 | – | – | disrupting interaction | disrupting interaction | – | – | – | C282Y

Continued, variant first:

Row | Variant | effect of a mutation on the interaction [1] | effect of a mutation on the interaction [2] | effect of a mutation on the interaction [3] | effect of a mutation on the interaction [4] | effect of a mutation on the interaction [5] | effect of a mutation on the interaction [6] | effect of a mutation on the interaction [7]
3 | N110A | – | disrupting interaction | – | – | disrupting interaction | disrupting interaction | decreasing interaction
4 | N130A | – | disrupting interaction | – | – | disrupting interaction | disrupting interaction | decreasing interaction

— IntAct's records for PubMed 20618438
